Experimental data: article PMC5344210

Columns and labels:
[1] = DISC immunoprecipitation and immunoblot, U2OS; conditions: glycan lost; control: TRAIL-R1 WT
[2] = immunofluorescence of receptor clustering after TRAIL, U2OS; conditions: glycan lost; control: TRAIL-R1 WT
[3] = DISC immunoprecipitation and immunoblot, reconstituted DKO cells; conditions: glycan lost; control: TRAIL-R1 WT
[4] = anti-TRAIL-R1 immunofluorescence after His-hTRAIL, reconstituted DKO cells; conditions: glycan lost; control: TRAIL-R1 WT
[5] = biological target: UL141-GPI (GPI-anchored ectodomain of HCMV UL141, FIX strain) (human cytomegalovirus (FIX strain)) (UniProt Q6RJQ3); assay: flow cytometry on cells
[6] = surface flow cytometry with MD5-1, B16; conditions: glycan lost; control: WT mTRAIL-R
receptor internalization = conditions: glycan lost; control: WT mTRAIL-R
[7] = receptor clustering upon ligand binding, B16 and U2OS; conditions: glycan lost; control: WT mTRAIL-R

UniProt Q6RJQ3, sequence (Q6RJQ3 37-278): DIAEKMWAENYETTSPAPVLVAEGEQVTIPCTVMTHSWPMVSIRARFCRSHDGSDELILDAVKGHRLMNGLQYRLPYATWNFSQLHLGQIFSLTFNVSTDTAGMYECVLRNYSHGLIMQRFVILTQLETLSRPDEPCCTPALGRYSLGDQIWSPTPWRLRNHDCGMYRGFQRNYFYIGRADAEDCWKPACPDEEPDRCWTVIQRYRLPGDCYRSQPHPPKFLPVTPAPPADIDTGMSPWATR

Molecule: TRAIL-R1: N156A
- other: DISC formation (caspase-8/-10 recruitment) [1]: decreases
- oligomerisation [2]: decreases
- other: DISC formation (caspase-8/-10 recruitment) [3]: decreases
- oligomerisation [4]: decreases

Molecule: TRAIL-R1-Fc N156A (N-glycosylation-deficient human TRAIL-R1 fused to human Fc IgG1) (from UniProt O00220 24-239) (Fc fusion)
- fold higher binding affinity than glycosylated TRAIL-R1 [5]: 5 fold

B1: mTRAIL-R (mouse TRAIL receptor): N99A (protein)
parent chain: MEPPGPSTPTASAAARADHYTPGLRPLPKRRLLYSFALLLAVLQAVFVPVTANPAHNRPAGLQRPEESPSRGPCLAGQYLSEGNCKPCREGIDYTSHSNHSLDSCILCTVCKEDKVVETRCNITTNTVCRCKPGTFEDKDSPEICQSCSNCTDGEEELTSCTPRENRKCVSKTAWASWHKLGLWIGLLVPVVLLIGALLVWKTGAWRQWLLCIKRGCERDPESANSVHSSLLDRQTSSTTNDSNHNTEPGKTQKTGKKLLVPVNGNDSADDLKFIFEYCSDIVPFDSWNRLMRQLGLTDNQIQMVKAETLVTREALYQMLLKWRHQTGRSASINHLLDALEAVEERDAMEKIEDYAVKSGRFTYQNAAAQPETGPGGSQCV
- expression_or_secretion [6]: no change

B2: mTRAIL-R (mouse TRAIL receptor): N99/122A (protein)
parent chain: MEPPGPSTPTASAAARADHYTPGLRPLPKRRLLYSFALLLAVLQAVFVPVTANPAHNRPAGLQRPEESPSRGPCLAGQYLSEGNCKPCREGIDYTSHSNHSLDSCILCTVCKEDKVVETRCNITTNTVCRCKPGTFEDKDSPEICQSCSNCTDGEEELTSCTPRENRKCVSKTAWASWHKLGLWIGLLVPVVLLIGALLVWKTGAWRQWLLCIKRGCERDPESANSVHSSLLDRQTSSTTNDSNHNTEPGKTQKTGKKLLVPVNGNDSADDLKFIFEYCSDIVPFDSWNRLMRQLGLTDNQIQMVKAETLVTREALYQMLLKWRHQTGRSASINHLLDALEAVEERDAMEKIEDYAVKSGRFTYQNAAAQPETGPGGSQCV
- expression_or_secretion [6]: no change
- localisation_or_trafficking (receptor internalization): increases
- oligomerisation [7]: decreases

B3: mTRAIL-R (mouse TRAIL receptor): N99/122/150A (protein)
parent chain: MEPPGPSTPTASAAARADHYTPGLRPLPKRRLLYSFALLLAVLQAVFVPVTANPAHNRPAGLQRPEESPSRGPCLAGQYLSEGNCKPCREGIDYTSHSNHSLDSCILCTVCKEDKVVETRCNITTNTVCRCKPGTFEDKDSPEICQSCSNCTDGEEELTSCTPRENRKCVSKTAWASWHKLGLWIGLLVPVVLLIGALLVWKTGAWRQWLLCIKRGCERDPESANSVHSSLLDRQTSSTTNDSNHNTEPGKTQKTGKKLLVPVNGNDSADDLKFIFEYCSDIVPFDSWNRLMRQLGLTDNQIQMVKAETLVTREALYQMLLKWRHQTGRSASINHLLDALEAVEERDAMEKIEDYAVKSGRFTYQNAAAQPETGPGGSQCV
- expression_or_secretion [6]: decreases
- oligomerisation [7]: decreases

B4: mTRAIL-R (mouse TRAIL receptor): N122/150A (protein)
parent chain: MEPPGPSTPTASAAARADHYTPGLRPLPKRRLLYSFALLLAVLQAVFVPVTANPAHNRPAGLQRPEESPSRGPCLAGQYLSEGNCKPCREGIDYTSHSNHSLDSCILCTVCKEDKVVETRCNITTNTVCRCKPGTFEDKDSPEICQSCSNCTDGEEELTSCTPRENRKCVSKTAWASWHKLGLWIGLLVPVVLLIGALLVWKTGAWRQWLLCIKRGCERDPESANSVHSSLLDRQTSSTTNDSNHNTEPGKTQKTGKKLLVPVNGNDSADDLKFIFEYCSDIVPFDSWNRLMRQLGLTDNQIQMVKAETLVTREALYQMLLKWRHQTGRSASINHLLDALEAVEERDAMEKIEDYAVKSGRFTYQNAAAQPETGPGGSQCV
- expression_or_secretion [6]: no change

B5: mTRAIL-R (mouse TRAIL receptor): N99/150A (protein)
parent chain: MEPPGPSTPTASAAARADHYTPGLRPLPKRRLLYSFALLLAVLQAVFVPVTANPAHNRPAGLQRPEESPSRGPCLAGQYLSEGNCKPCREGIDYTSHSNHSLDSCILCTVCKEDKVVETRCNITTNTVCRCKPGTFEDKDSPEICQSCSNCTDGEEELTSCTPRENRKCVSKTAWASWHKLGLWIGLLVPVVLLIGALLVWKTGAWRQWLLCIKRGCERDPESANSVHSSLLDRQTSSTTNDSNHNTEPGKTQKTGKKLLVPVNGNDSADDLKFIFEYCSDIVPFDSWNRLMRQLGLTDNQIQMVKAETLVTREALYQMLLKWRHQTGRSASINHLLDALEAVEERDAMEKIEDYAVKSGRFTYQNAAAQPETGPGGSQCV
- expression_or_secretion [6]: no change
